Where two headings read alike, the source gives them in different places.
Columns and labels:
[1] = human, in vivo
Excerpt: Two peripheral intravenous catheters were placed, one for tracer injection and one in the contralateral arm for withdrawal of blood samples and administration of i.v. contrast agent. Electrocardiogram and vital signs as well as safety blood samples were monitored before and following [^68Ga]Ga-NODAGA-E[c(RGDyK)]2 injection. […] Furthermore, urine was collected for pharmacokinetic analysis and dosimetry in a subset of patients (Figure 1).

[2] = parameters: species or system human; settings: in vivo, iv
Excerpt: Two peripheral intravenous catheters were placed, one for tracer injection and one in the contralateral arm for withdrawal of blood samples and administration of i.v. contrast agent. Electrocardiogram and vital signs as well as safety blood samples were monitored before and following [^68Ga]Ga-NODAGA-E[c(RGDyK)]2 injection. […] Furthermore, urine was collected for pharmacokinetic analysis and dosimetry in a subset of patients (Figure 1). The activity concentration of the urine and plasma was counted on Cobra II TM Gamma Counter (Packard, CT, USA). Blood and urine samples were analyzed on a Dionex UltiMate 3000 column-switching high-performance liquid chromatography (HPLC) system with a Posi-RAM Module 4 (ThermoFisher Scientific, Waltham, MA, USA). The full blood samples were centrifuged (3500 rpm, 4 min) and the supernatant plasma was collected and filtered through a […] syringe filter prior to the HPLC analysis. The HPLC analysis consisted of an extraction step and an analytical step, as previously described. During the extraction step, the plasma samples were passed through a shim-pack XR-ODS (30 × 4.6 mm, 2.2 μm). The valves were switched, and the sample was then analyzed on an Onyx monolithic column (C18, 50 × 4.6 mm). […]

[3] = parameters: species or system human; settings: in vivo
Experimental: Dosimetry was based on the decay-uncorrected image sets from the 3 time points (10 patients) supplemented with sampled urine data (7 patients). For each patient, organ, and time point, tissue activity concentration (kBq/mL) was determined in VOIs defined on CT. Activity (per patient, organ and time) was estimated by multiplying concentration values by organ masses of the OLINDA adult phantom, normalized per injected MBq and scaled for patient weight. Time integrated activity coefficients (TIAC, unit h) for each patient and organ was determined by numerical integration and analytical extrapolation to infinity assuming only physical decay. The resulting organ TIACs were averaged over patients. All data were entered into OLINDA/EXM 2.0 software (Vanderbilt University, TN, USA and HERMES Medical Solutions, Stockholm, Sweden).
Urine was collected immediately after each scan in pre-weighted plastic bottles. The cumulated decay-corrected activity (MBq) of the excreted urine was plotted over time for all 7 subjects and data fitted to a one-phase exponential association. […] A detailed description of the dosimetry is available in Supplementary Material (Section S2).
testine, spleen, stomach contents, testes, thyroid, and upper large intestine. For each pa-
tient, organ, and time-point, tissue activity concentration (kBq/mL) was calculated as the
average of the mean values from 3 VOIs. Total activity (per patient, organ and time) was
estimated by multiplying these average values by organ masses of the OLINDA male
adult phantom. Activity values were normalized to 1MBq by dividing with injected
activity and scaled with the ratio of actual patient weight to the weight of the standard
model (73 kg). As a surrogate for red marrow activity, VOIs were drawn encompassing
large portions of the L3–L5 vertebrae. Time integrated activity coefficients (TIAC, for-
merly known as residence time; unit h) for each patient and organ was determined by nu-
merical integration up to the third (last) data point and analytical extrapolation to infinity
assuming only physical decay. Piecewise linearity was assumed from time zero up to the
second data point and a mono-exponential was used between the second and third data
points. The resulting organ TIACs were averaged over patients. All data were entered into
OLINDA/EXM 2.0 software (Vanderbilt Universi ty, and HERMES Medical Solutions).
Urine was collected immediately after each scan in pre-weighted plastic bottles and
for each individual voiding the weight (volume) was measured and a 500 μL sample was
drawn for activity measurement in a calibrated gamma well counter (Cobra II TM,
Gamma Counting Systems; PACKARD, Meriden, CT, USA).The cumulated decay cor-
rected activity (in MBq) of the excreted urine, normalized to 1 MBq of injection, was plot-
ted over time (in Excel) for all 7 subjects and data fitted to a one phase exponential asso-
ciation (exponential growing towards a limit). The resulting limit and half-life were used
as input to the bladder voiding model of OLINDA, yielding the TIAC for bladder con-
tents. In concordance with the actual setup a bladder voiding interval of 1 hour was se-
The value for “remainder tissue” was calculated as the total area (in h) for 1 MBq
minus the sum of the organ-specific values (except bladder) minus the value passed to
urine (based on the fitted model parameters). The fraction of the latter that is attributed to
the bladder depends on the voiding interval.
The output from OLINDA consists of absorbed doses for organs and effective dose
with weight factors according to ICRP 103 [3]. […]
3. The 2007 Recommendations of the International Commission on Radiological Protection. ICRP publication 103. Ann ICRP

integrin subtype αvβ3 = settings: in vitro; unlabelled NODAGA-E[c(RGDyK)]2; ref Bentsen et al., unpublished data; read-out: affinity (KD); cited from earlier work
Excerpt: A large number of PET tracers with the RGD motif have been developed and tested preclinically. However, only a few have reached testing in clinical trials, and none have yet been employed for routine clinical use. The clinical translation of first-generation integrin-targeting PET tracers with ^18F, e.g., ^18F-Galacto-RGD, was hampered by complex radiochemistry. Thus, several approaches to optimize the production and tracer stability as well as tumor-binding properties have been investigated. Addressing the need for assessing integrin αvβ3, our group evaluated a number of PET tracers uti ...

[4] = test system: head and neck squamous cell carcinoma; settings: 10 patients with head and neck squamous cell carcinoma; cited from earlier work
Excerpt: (§1) A secondary objective of our study was to assess [^68Ga]Ga-NODAGA-E[c(RGDyK)]2 uptake in tumors.

[5] = in vivo; cited from earlier work
Excerpt: as §1

In the case of `N=C(N)NCCC[C@@H]1NC(=O)[C@H](CCCCNC(=O)CC[C@H](NC(=O)CCC(C(=O)O)N2CCN(CC(=O)O)CCN(CC(=O)O)CC2)C(=O)NCCCC[C@@H]2NC(=O)[C@@H](Cc3ccc(O)cc3)NC(=O)[C@H](CC(=O)O)NC(=O)CNC(=O)[C@H](CCCNC(=N)N)NC2=O)NC(=O)[C@@H](Cc2ccc(O)cc2)NC(=O)[C@H](CC(=O)O)NC(=O)CNC1=O` (stereo partly drawn) [[^68Ga]Ga-NODAGA-E[c(RGDyK)]2, metal not drawn], the “acute or long-term effects on blood parameters or organ function” value [1] is reported as “No acute or long-term effects”, the “changes in vital signs, laboratory studies or electrocardiograms” value [1] is reported as “No significant changes” and the plasma half-life ([2]; human) is reported as 8.6 min. For the same molecule, the “plasma metabolites by reversed-phase HPLC” value [2] was “two unknown polar metabolites”, the “Mean Absorbed Dose, Adrenals” value [3] was 0.0245 mGy/MBq and the “Mean Absorbed Dose, Brain” value [3] was 0.00252 mGy/MBq. For the same molecule, the “Mean Absorbed Dose, Breasts” value [3] was 0.0105 mGy/MBq, the “Mean Absorbed Dose, Esophagus” value [3] was 0.0112 mGy/MBq and the “Mean Absorbed Dose, Eyes” value [3] was 0.00929 mGy/MBq. For the same molecule, the “Mean Absorbed Dose, Gallbladder Wall” value [3] was 0.0143 mGy/MBq, the “Mean Absorbed Dose, Heart Wall” value [3] was 0.0146 mGy/MBq and the “Mean Absorbed Dose, Kidneys” value [3] was 0.0627 mGy/MBq. The “Mean Absorbed Dose, Left Colon” value [3] was 0.0136 mGy/MBq, the “Mean Absorbed Dose, Liver” value [3] was 0.0279 mGy/MBq and the “Mean Absorbed Dose, Lungs” value [3] was 0.00792 mGy/MBq. For the same molecule, the “Mean Absorbed Dose, Osteogenic Cells” value [3] was 0.0136 mGy/MBq, the “Mean Absorbed Dose, Ovaries” value [3] was 0.0154 mGy/MBq and the “Mean Absorbed Dose, Pancreas” value [3] was 0.0144 mGy/MBq. For the same molecule, the “Mean Absorbed Dose, Prostate” value [3] was 0.0133 mGy/MBq, the “Mean Absorbed Dose, Rectum” value [3] was 0.0151 mGy/MBq and the “Mean Absorbed Dose, Red Marrow” value [3] was 0.015 mGy/MBq. The “Mean Absorbed Dose, Right Colon” value [3] was 0.0131 mGy/MBq, the “Mean Absorbed Dose, Salivary Glands” value [3] was 0.00996 mGy/MBq and the “Mean Absorbed Dose, Small Intestine” value [3] was 0.0603 mGy/MBq. The “Mean Absorbed Dose, Spleen” value [3] was 0.0504 mGy/MBq, the “Mean Absorbed Dose, Stomach Wall” value [3] was 0.0263 mGy/MBq and the “Mean Absorbed Dose, Testes” value [3] was 0.0192 mGy/MBq. For the same molecule, the “Mean Absorbed Dose, Thymus” value [3] was 0.011 mGy/MBq, the “Mean Absorbed Dose, Thyroid” value [3] was 0.0663 mGy/MBq and the “Mean Absorbed Dose, Total Body” value [3] was 0.0133 mGy/MBq. For the same molecule, the “Mean Absorbed Dose, Urinary Bladder Wall” value [3] was 0.126 mGy/MBq, the “Mean Absorbed Dose, Uterus” value [3] was 0.018 mGy/MBq and the “effective dose” value [3] was 0.0218 mSv/MBq. The “effective dose (radiation exposure) at injected activity of 200 MBq” value [3] was 4.4 mSv, the kidney radiation [3] was 0.063 mGy/MBq and the “radiation dose, kidneys” value [3] was 0.063 mSv/MBq. The “radiation dose, thyroid” value [3] was 0.066 mSv/MBq and the “radiation dose, urinary bladder wall” value [3] was 0.126 mSv/MBq.

For “NODAGA-E[c(RGDyK)]2 (head to tail) [unlabelled precursor of the tracer, obtained as acetate from ABX GmbH]”, the Kd (integrin subtype αvβ3) is listed as 0.075 nM.

For “[^68Ga]Ga-NODAGA-RGDyK [monomeric RGD PET tracer]”, the “mean SUVmax in the primary tumor” value [4] is given as 3.9 ± 1.1, the effective dose [5] is given as 19.8 µSv/MBq and the kidney radiation [5] is given as 0.046 mGy/MBq.

Reference: publication PMC9027224 (Diagnostics, 2022)
